# Results reported in patent US20130046257A1, “METHODS OF USING AGENTS THAT MODULATE CLAUDIN EXPRESSION” (priority 2010, published 2013).
# “Also recorded” adds a separate entry of the source.
# What was measured:
# claudin-1 transcripts = experiment: qPCR of claudin-1 transcripts in PHK transfected with claudin-1 siRNA; assay type: cell-based, human; conditions: siRNA 100 nM, 2^-ΔΔCt, GAPDH normalised, listed as Cldn1 siRNA
# Protocol: (§1) QPCR was performed using the iScript™ cDNA Synthesis kit and iQ™ SYBER Green Supermix assay system (Bio-Rad Laboratories). All PCR amplifications were carried out in triplicate on an iQ5 Multicolor real-time PCR detection system (Bio-Rad). Primers were designed and synthesized by Integrated
# (§2) DNA Technologies (Table 1). Relative gene expression was calculated by using the 2^−ΔΔCt method. Livak and Schmittgen, “Analysis of Relative Gene Expression Data Using Real-Time Quantitative PCR and the 2(-Delta Delta C(T)) Method,” Methods 25:402-8 (2001), which is hereby incorporated by reference in its entirety. The normalized Ct value of each sample was calculated using GAPDH as an endogenous control gene.
# PHK were plated on glass coverslips at 2-3×10^5 cells/well in a 6-well plate or at 2-3×10^4 cells/filter in Transwell insert (Costar; PET membrane, 0.4 μm pore size, 6.5 mm insert) in Keratinocyte-SFM without antibiotics. […]
# siRNA approach was used to selectively downregulate claudin-1 in primary human keratinocytes (PHK). […] Relative gene expressions were calculated by using the 2^−ΔΔCt method, in which Ct indicates cycle threshold, the fractional cycle number where the fluorescent signal reaches detection threshold. The normalized Ct value of each sample was calculated using GAPDH as endogenous control gene. […]
# [1] = system: occludin, ZO-1, nectin-1, E-cadherin, filaggrin mRNA; experiment: qPCR of other barrier genes in claudin-1 siRNA transfected PHK; assay type: cell-based, human; conditions: siRNA 100 nM
# Protocol: as §1, §2
# Reverse transcription was performed from total RNA using iScript™ cDNA Synthesis kit (Bio-Rad) according to the manufacturer's protocol. qPCR was performed using the iQ™ SYBER Green Supermix assay system from Bio-Rad Laboratories. All PCR amplifications were carried out in triplicate on an iQ5 Multicolor real-time PCR detection system (Bio-Rad). Primers were designed and synthesized by Integrated DNA Technologies. Primers used in the study: GAPDH (forward: SEQ ID NO: 16 and reverse: SEQ ID NO: 17); Cldn-1 (forward: (SEQ ID NO:18 and reverse: SEQ ID NO:19); PVRL1 (Nectin1; forward: SEQ ID NO:28 and reverse SEQ ID NO:29).
# Relative gene expression was calculated by using the […] method, in which Ct indicates cycle threshold, the fractional cycle number where the fluorescent signal reaches detection threshold. Livak and Schmittgen, “Analysis of Relative Gene Expression Data Using Real-Time Quantitative PCR and the 2(-Delta Delta C(T)) Method,” Methods 25:402-8 (2001), which is hereby incorporated by reference in its entirety. The normalized Ct value of each sample was calculated using GAPDH as an endogenous control gene.
# connexin-26 (GJB2) = experiment: qPCR of connexin-26 in claudin-1 siRNA transfected PHK; assay type: cell-based, human; conditions: n=6
# Protocol: as §1, §2
# [2] = system: primary human keratinocytes (PHK); experiment: Trans Epithelial Electric Resistance (TEER) of PHK; assay type: cell-based
# Protocol: Human keratinocytes were isolated from neonatal foreskin. Poumay et al., “Basal Detachment of the Epidermis Using Dispase: Tissue Spatial Organization and Fate of Integrin Alpha 6 Beta 4 and Hemidesmosomes,” J. Invest. Dermatol. 102:111-7 (1994), which is hereby incorporated by reference in its entirety. PHK were cultured in Keratinocyte-SFM (Invitrogen/Gibco) with 1% Pen/Strep, 0.2% Amphotericin B (Invitrogen/Gibco). To differentiate PHK, cells were grown in DMEM (Invitrogen/Gibco) with 10% heat-inactivated fetal bovine serum (Invitrogen/Gibco) and 1% Pen/Strep, 0.2% Amphotericin B (Invitrogen/Gibco). For TJ modulation experiments, the following cytokines were added alone or in combination to the differentiation media; human IL-4 (50 ng/ml; R&D system) and IL-13 (50 ng/ml; R&D system).
# PHK were plated at a subconfluent density of 2.5−3×10^4 cells/filter in Transwell insert and cultured in Keratinocyte-SFM media until confluent. TEER was measured using an EVOMX voltohmmeter (World Precision Instruments, Sarasota, Fla.). The resistance of cell-free filters was subtracted from each experimental value.
# PHK were plated on glass coverslips at 2-3×10^5 cells/well in a 6-well plate or at 2-3×10^4 cells/filter in Transwell insert (Costar; PET membrane, 0.4 μm pore size, 6.5 mm insert) in Keratinocyte-SFM without antibiotics. The next day after plating, cells were transfected with claudin-1 specific or control (scrambled) siRNAs (Santa Cruz) using Lipofectamine™ 2000 transfection Reagent (Invitrogen). TEER and permeability experiments were conducted 48 hours after PHK were switched to differentiation media.
# TEER was measured in PHK as described above. PHK were stimulated with S. aureus-derived peptidoglycan (PGN, 0.2-20 μg/ml, n=3-7) (FIG. 19A), Malp-2 (10-1000 ng/ml, n=3) (FIG. 19B), and Pam3CSK4 a TLR1/2 ligand (0.01-20 μg/ml, n=3-6) (FIG. 19C). Data are presented by analyzing the area under the TEER curve and normalized to the mean values for the control group (media alone)*p<0.05; **p<0.01.
molecule,measurement,setting,value
"CLDN1 siRNA: claudin-1 siRNA (h), Santa Cruz; a pool of 3 separate strands, SEQ ID NO: 10-15 (nucleic acid, chemistry not given here) chain 1: UACAUAGGCAUAGUUCAUGNN chain 2: CAUGAACUAUGCCUAUGUANN chain 3: AACGUAUGCAGUUAAUUCCNN chain 4: GGAAUUAACUGCAUACGUUNN chain 5: UGAAGAUCUAUGUAUGUGGNN chain 6: CCACAUACAUAGAUCUUCANN","claudin-1 transcripts, fold of control transfected cells",claudin-1 transcripts,0.5%±0.06 fold
same,effect on nectin-1 mRNA expression,[1],not affected; also recorded: no effect
same,"effect on mRNA expression of occludin, ZO-1, nectin-1, E-cadherin or filaggrin",[1]; n=5/group,no effect
same,nectin-1 (PVRL1) mRNA relative expression,[1]; n=5/group,0.99±0.16
same,"connexin-26 (GJB2) expression, fold over control",connexin-26 (GJB2),1.7±0.8 fold
same,TEER (FIG. 12C legend),"[2]; CLDN1 siRNA, PHK, n=4",80.6±6.4
same,TEER,"[2]; siRNA 100 nM, PHK 48 hours after switch to differentiation media, n=4",80.6±6.4 ohms×cm^2
same,drop in TEER,"[2]; siRNA 100 nM, vs scrambled siRNA-transfected PHK",≥ 50%
